Data on one protein can be found in doi:10.1101/2021.07.03.450947, “The pore conformation of lymphocyte perforin” (bioRxiv, 2021).

The series concerns the molecule itself. Description: cryo-electron tomography; prepores on liposomes (PC, cholesterol, biotinyl PE 6:3:1) held on streptavidin grids; 20 mM HEPES pH 7.5, 150 mM NaCl, 5 mM CaCl2; 5-10 min at 37°C; protein to lipid about 1:10,000.

B1: TMH1-lock mutant of perforin (A144C-W373C) (natural protein, mouse, UniProt P10820 21-554, looked up)
chain: PCYTATRSECKQKHKFVPGVWMAGEGMDVTTLRRSGSFPVNTQRFLRPDRTCTLCKNSLMRDATQRLPVAITHWRPHSSHCQRNVAAAKVHSTEGVAREAAANINNDWRVGLDVNPRPEANMRCSVAGSHSKVANFAAEKTYQDQYNFNSDTVECRMYSFRLVQKPPLHLDFKKALRALPRNFNSSTEHAYHRLISSYGTHFITAVDLGGRISVLTALRTCQLTLNGLTADEVGDCLNVEAQVSIGAQASVSSEYKACEEKKKQHKMATSFHQTYRERHVEVLGGPLDSTHDLLFGNQATPEQFSTWTASLPSNPGLVDYSLEPLHTLLEEQNPKREALRQAISHYIMSRARCQNCSRPCRSGQHKSSHDSCQCECQDSKVTNQDCCPRQRGLAHLVVSNFRAEHLWGDYTTATDAYLKVFFGGQEFRTGVVWNNNNPRWTDKMDFENVLLSTGGPLRVQVWDADYGWDDDLLGSCDRSPHSGFHEVTCELNHGRVKFSYHAKCLPHLTGGTCLEYAPQGLLGDPPGNRSGAVW
modifications: engineered disulphide bond between A144C and W373C
notes: perforin, mouse, with the engineered disulphide A144C-W373C that tethers TMH1 to the core of the MACPF domain; also called A144C-W373C perforin; source: baculovirus/insect cell system, purified from the supernatant
B1: the binding result was “binds”.
